The labels stand for the following.
B1: Zinc finger MYM-type protein 3, residues 405 to 444; numbered along this chain, Q14202 (parent)
chain: DATRCSICQKTGEVLHEVSNGSVVHRLCSDSCFSKFRANK

± gives the uncertainty stated by the source.

In the data set the parent is B1. Description: abundance fitness (aPCA) (normalised: wild type 0, dead -1); higher = more abundant; growth selection in yeast, the domain comes from the species named. The conditions noted are these: Homo sapiens.
As for DATRCSICQKTGEVQHEVSNGSVVHRLCSDSCFSKFRANK [L15Q], the abundance fitness amounted to 0.102 ± 0.059.

On to DATRCSICQKTGEVHHEVSNGSVVHRLCSDSCFSKFRANK [L15H], for which the abundance fitness is 0.017 ± 0.11. To DATRCSICQKTGEVSHEVSNGSVVHRLCSDSCFSKFRANK [L15S] belongs 0.047 ± 0.065. To DATRCSICQKTGEVFHEVSNGSVVHRLCSDSCFSKFRANK [L15F] belongs -0.092 ± 0.13.

Consider DATRCSICQKTGEVIHEVSNGSVVHRLCSDSCFSKFRANK [L15I], for which the abundance fitness was 0.001 ± 0.07. Next, DQTRCSICQKTGEVLHEVSNGSVVHRLCSDSCFSKFRANK [A2Q]: 0.285 ± 0.069. For DFTRCSICQKTGEVLHEVSNGSVVHRLCSDSCFSKFRANK [A2F], the abundance fitness was determined as 0.186 ± 0.14. With DDTRCSICQKTGEVLHEVSNGSVVHRLCSDSCFSKFRANK [A2D], the abundance fitness is 0.305 ± 0.067. On to DATRCSICQKTGEVLHEVSNGSVVHRLCSLSCFSKFRANK [D30L], for which the abundance fitness is -0.398 ± 0.057. Regarding DATRCSICQKTGEVLHEVSNGSVVHRLCSNSCFSKFRANK [D30N], the abundance fitness is -0.721 ± 0.31. Next, DATRCSICQKTGEVLHEVSNGSVVHRLCSESCFSKFRANK [D30E]: -0.041 ± 0.066; DATRCSICQKTGEVLHEVSNGSVVHRLCSYSCFSKFRANK [D30Y]: -0.857 ± 0.34. For the variant DATRCSICQKTGEVLHEVSNGSVVHRLCSHSCFSKFRANK [D30H], the abundance fitness is -0.425 ± 0.15.

Regarding DARRCSICQKTGEVLHEVSNGSVVHRLCSDSCFSKFRANK [T3R], the abundance fitness was -0.047 ± 0.052. To DAQRCSICQKTGEVLHEVSNGSVVHRLCSDSCFSKFRANK [T3Q] belongs 0.205 ± 0.061; to DASRCSICQKTGEVLHEVSNGSVVHRLCSDSCFSKFRANK [T3S], -0.06 ± 0.058; to DADRCSICQKTGEVLHEVSNGSVVHRLCSDSCFSKFRANK [T3D], -0.088 ± 0.067. DAWRCSICQKTGEVLHEVSNGSVVHRLCSDSCFSKFRANK [T3W]: the abundance fitness was -0.085 ± 0.058. Next, DALRCSICQKTGEVLHEVSNGSVVHRLCSDSCFSKFRANK [T3L]: -0.061 ± 0.056; DATRCSICQKTGEVLHEVSNGTVVHRLCSDSCFSKFRANK [S22T]: 0.018 ± 0.058. Consider DATRCSICQKTGEVLHEVSNGYVVHRLCSDSCFSKFRANK [S22Y], for which the abundance fitness is -0.303 ± 0.094.

Consider DATRCSICQKTGEVLHEVSNGNVVHRLCSDSCFSKFRANK [S22N], for which the abundance fitness was found to be 0.029 ± 0.094. To DATRCSICQKTGEVLHEVSNGSVVPRLCSDSCFSKFRANK [H25P] belongs -0.363 ± 0.073; to DATRCSICQKTGEVLHEVSNGSVVHRLCQDSCFSKFRANK [S29Q], -0.427 ± 0.087; to DATRCSICQKTGEVLHEVSNGSVVHRLCEDSCFSKFRANK [S29E], -0.325 ± 0.063. To DATRCSICQKTGEVLHEVSNGSVVHRLCTDSCFSKFRANK [S29T] belongs -0.771 ± 0.1. As to DATRCSMCQKTGEVLHEVSNGSVVHRLCSDSCFSKFRANK [I7M], the abundance fitness is -0.194 ± 0.072. For the variant DATRCSICQKTGEVLTEVSNGSVVHRLCSDSCFSKFRANK [H16T], the abundance fitness was -0.352 ± 0.063. Next, DATRCSICQKTGEVLLEVSNGSVVHRLCSDSCFSKFRANK [H16L]: -0.645 ± 0.057; DATRQSICQKTGEVLHEVSNGSVVHRLCSDSCFSKFRANK [C5Q]: -1.05 ± 0.089. On to DATRSSICQKTGEVLHEVSNGSVVHRLCSDSCFSKFRANK [C5S], for which the abundance fitness is -0.922 ± 0.097.

Turning to DATRCSICQKTGEVLHEVSNGSVVHRLCSDSCFSNFRANK [K35N], the abundance fitness came to 0.03 ± 0.34. As for DATRCSICQKTGEVLHEVSNGSVVHRLCSDSCFSEFRANK [K35E], the abundance fitness stood at 0.166 ± 0.056.

For the variant DATRCSICQKTGEVLHEVSNGSVVHRLCSDSNFSKFRANK [C32N], the abundance fitness was -0.808 ± 0.1. To DATRCSICQKTGEVLHEVSNGSVVHRLCSDSFFSKFRANK [C32F] belongs -0.968 ± 0.16. For DATRCSICQKTGEVLHEVSNGSVVHRLCSDSHFSKFRANK [C32H], the abundance fitness was -0.59 ± 0.11.

For QATRCSICQKTGEVLHEVSNGSVVHRLCSDSCFSKFRANK [D1Q], the abundance fitness was -0.251 ± 0.12. Next, SATRCSICQKTGEVLHEVSNGSVVHRLCSDSCFSKFRANK [D1S]: -0.054 ± 0.09; DATRCSICQKTGEVLHEVSNGSVVHRLCSDSCFSKFQANK [R37Q]: 0.106 ± 0.069; DATRCSICQKTGEVLHEVSNGSVVHRLCSDSCFSKFNANK [R37N]: 0.135 ± 0.11. For the variant DATRCSICQKTGEVLHEVSNGSVVHRLCSDSCFSKFKANK [R37K], the abundance fitness is 0.199 ± 0.067. With DATRCSICQKTGEVLHEVSNGSVVHRLCSDSCFSKFDANK [R37D], the abundance fitness was found to be 0.143 ± 0.08.

For the variant DATRCSICQKTGEVLHEVSNGSVVHRLCSDSCFSKFCANK [R37C], the abundance fitness is -0.093 ± 0.071. Consider DATRCSICQKTGRVLHEVSNGSVVHRLCSDSCFSKFRANK [E13R], for which the abundance fitness is -0.19 ± 0.051. DATRCSICQKTGNVLHEVSNGSVVHRLCSDSCFSKFRANK [E13N]: the abundance fitness is -0.216 ± 0.086. To DATRCSICQKTGQVLHEVSNGSVVHRLCSDSCFSKFRANK [E13Q] belongs -0.052 ± 0.072; to DATRCSICQKTGLVLHEVSNGSVVHRLCSDSCFSKFRANK [E13L], -0.391 ± 0.057.

In the case of DATRCSICQKTGHVLHEVSNGSVVHRLCSDSCFSKFRANK [E13H], the abundance fitness is -0.204 ± 0.091. Next, DATRCSICQKTGFVLHEVSNGSVVHRLCSDSCFSKFRANK [E13F]: 0.036 ± 0.1; DATRCSICQKTGSVLHEVSNGSVVHRLCSDSCFSKFRANK [E13S]: -0.201 ± 0.054; DATRCSICQKTGEVLHEVSNGSVVHRLCSDSCFSKFRSNK [A38S]: -0.2 ± 0.061. Next, DATRCSICQKTGEVLHEVSNGSVVHRLCSDSCFSKFRGNK [A38G]: 0.011 ± 0.05. To DATRCSICQKFGEVLHEVSNGSVVHRLCSDSCFSKFRANK [T11F] belongs -0.221 ± 0.15.

In the case of DATRCSICQKGGEVLHEVSNGSVVHRLCSDSCFSKFRANK [T11G], the abundance fitness is -0.127 ± 0.055. Next, DATRCSICQKRGEVLHEVSNGSVVHRLCSDSCFSKFRANK [T11R]: -0.287 ± 0.058. To DATRCSICQKPGEVLHEVSNGSVVHRLCSDSCFSKFRANK [T11P] belongs -0.499 ± 0.078. To DATRCSICQKIGEVLHEVSNGSVVHRLCSDSCFSKFRANK [T11I] belongs -0.203 ± 0.23; to DATRCSICQKTGEVLHEVSNGSVVHRLCSDSCFSKFRAHK [N39H], -0.212 ± 0.087; to DATRCSICQKTGEVLHEVHNGSVVHRLCSDSCFSKFRANK [S19H], -0.268 ± 0.08.

Take DATRCSICQKTGEVLHEVPNGSVVHRLCSDSCFSKFRANK [S19P]: the abundance fitness was 0.023 ± 0.065. With DATRCSICQKTGEVLHEVMNGSVVHRLCSDSCFSKFRANK [S19M], the abundance fitness was -0.12 ± 0.079.

For the variant DATRCSICQKTGEVLHEVSNGSVVHHLCSDSCFSKFRANK [R26H], the abundance fitness was -0.074 ± 0.062.

The record behind these values is the Human Domainome abundance scans (Beltran et al. 2025).
